Experimental data published in US20150344570A1 (published 2015).

T1: FcγRIIb extracellular domain with C-terminal His tag (human, UniProt P31994 43-217)
T1 construct: extracellular domain; expressed in FreeStyle293 cells; analyte in Biacore; also called FcgRIIb; 2b
T1 sequence (looked up): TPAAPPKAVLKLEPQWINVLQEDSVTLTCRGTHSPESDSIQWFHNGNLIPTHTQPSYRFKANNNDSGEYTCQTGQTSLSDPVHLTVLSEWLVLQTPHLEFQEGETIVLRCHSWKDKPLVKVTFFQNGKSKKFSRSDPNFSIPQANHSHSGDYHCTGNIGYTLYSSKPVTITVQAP

T2: FcγRIIb extracellular domain with C-terminal His tag (human, UniProt P31994 43-217)
T2 construct: extracellular domain; soluble analyte in Biacore; also called FcgRIIb; not shown: His tag at the C terminus
T2 sequence (looked up): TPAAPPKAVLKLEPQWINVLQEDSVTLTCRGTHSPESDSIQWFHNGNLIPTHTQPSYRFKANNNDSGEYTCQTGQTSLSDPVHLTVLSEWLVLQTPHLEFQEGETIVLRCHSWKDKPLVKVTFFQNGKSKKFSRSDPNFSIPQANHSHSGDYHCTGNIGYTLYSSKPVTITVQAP


How the values were obtained:
[1] = target: T3, FcγRIa extracellular domain with C-terminal His tag (human, UniProt P12314 16-292); assay: SPR (Biacore); He/Con_1a divided by He/Con_2b (FcγRIIb as reference)
T3 construct: extracellular domain; expressed in FreeStyle293 cells; analyte in Biacore; also called FcgRI; 1a
T3 sequence (P12314 16-292): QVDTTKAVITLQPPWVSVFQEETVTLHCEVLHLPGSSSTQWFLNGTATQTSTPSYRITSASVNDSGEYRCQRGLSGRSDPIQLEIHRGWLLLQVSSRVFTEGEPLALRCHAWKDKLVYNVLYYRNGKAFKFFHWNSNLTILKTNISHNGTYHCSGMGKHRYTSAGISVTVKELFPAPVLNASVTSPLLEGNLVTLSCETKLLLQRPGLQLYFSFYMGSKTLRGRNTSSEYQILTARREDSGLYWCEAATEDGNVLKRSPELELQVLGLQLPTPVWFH

[2] = target: T3, FcγRIa extracellular domain with …; assay: SPR (Biacore), captured antibody, FcγR as analyte; relative binding
[3] = target: T1, FcγRIIb extracellular domain with …; assay: as above
[4] = target: T4, FcγRIa extracellular domain with C-terminal His tag (human, UniProt P12314 16-292); assay: SPR, binding relative to GpH7-A5/GpH7-B3/GpL16-k0 = 100
T4 construct: extracellular domain; soluble analyte in Biacore; also called FcgRI; not shown: His tag at the C terminus
T4 sequence (P12314 16-292): as above

[5] = target: T2, FcγRIIb extracellular domain with …; assay: as above
[6] = target: T4, FcγRIa extracellular domain with …; assay: SPR; He/Con_1a divided by He/Con_2b (FcγRIa against FcγRIIb)
Experimental: The heterodimerized antibodies He Abs in which one of the H chains was introduced with an alteration were assayed for their binding activities to each activating FcγR and inhibitory FcγR according to the method described in Example 4. […] The activating FcγRs in FIGS. 26, 27, 28, and 29 are FcγRIa, FcγRIIa (R), FcγRIIa (H), and FcγRIIIa, respectively.
Analysis of interaction between objective antibody and the FcγR was carried out using Biacore T100 (GE Healthcare). HBS-EP+ (GE Healthcare) was used as the running buffer, and the measurement temperature was set to 25° C. Chips produced by immobilizing the antigen peptide by the amine coupling method to a Series S Sencor Chip CM5 (GE Healthcare), or alternatively, chips produced by allowing preliminarily biotinylated antigen peptides to interact with and immobilize onto a Series S Sensor Chip SA (certified) (GE Healthcare) were used. Antibodies of interest were captured onto an antigen peptide-immobilized chip, and allowed to interact to each FcγR diluted with running buffer. To regenerate and repeatedly use the chip, the antibodies captured on the chip were washed off by reacting 10 mM glycine-HCl, pH 1.5.

Row | Binder | He_1a/2b (Ia/IIb) [1] [ratio] | He/Con_1a [2] | He/Con_2b [3] | He/Con_1a [4] | He/Con_2b [5] | He_1a/2b (Ia/IIb) [6] [ratio]
1 | GpH7-A5/GpH7-B3 variant V266_09D/GpL16-k0 (antibody, human IgG1, kappa, He Ab; IgG1, mutation in one H chain) heavy 1: not shown heavy 2: not shown light: DIVMTQSPLSLPVTPGEPASISCQASESLVHSNRNTYLHWYLQKPGQSPQLLIYKVSNRFSGVPDRFSGSGSGTDFTLKISRVEAEDVGVYYCSQNTHVPPTFGQGTKVEIERTVAAPSVFIFPPSDEQLKSGTASVVCLLNNFYPREAKVQWKVDNALQSGNSQESVTEQDSKDSTYSLSSTLTLSKADYEKHKVYACEVTHQGLSSPVTKSFNRGEC | 7.88 | 79.3 % of HeCon Ab (GpH7-A5/GpH7-B3/GpL16-k0 = 100) | 10.1 % of HeCon Ab (GpH7-A5/GpH7-B3/GpL16-k0 = 100) | – | – | –
2 | GpH7-A5/GpH7-B3 variant D270_01G/GpL16-k0 (antibody, human IgG1, kappa, change in the GpH7-B3 H chain only; also called He Ab) heavy 1: not shown heavy 2: not shown light: DIVMTQSPLSLPVTPGEPASISCQASESLVHSNRNTYLHWYLQKPGQSPQLLIYKVSNRFSGVPDRFSGSGSGTDFTLKISRVEAEDVGVYYCSQNTHVPPTFGQGTKVEIERTVAAPSVFIFPPSDEQLKSGTASVVCLLNNFYPREAKVQWKVDNALQSGNSQESVTEQDSKDSTYSLSSTLTLSKADYEKHKVYACEVTHQGLSSPVTKSFNRGEC | – | – | – | 76.3 % of control | 30.5 % of control | 2.5
3 | GpH7-A5/GpH7-B3 variant D270_08L/GpL16-k0 (antibody, human IgG1, kappa, change in the GpH7-B3 H chain only; also called He Ab) heavy 1: not shown heavy 2: not shown light: DIVMTQSPLSLPVTPGEPASISCQASESLVHSNRNTYLHWYLQKPGQSPQLLIYKVSNRFSGVPDRFSGSGSGTDFTLKISRVEAEDVGVYYCSQNTHVPPTFGQGTKVEIERTVAAPSVFIFPPSDEQLKSGTASVVCLLNNFYPREAKVQWKVDNALQSGNSQESVTEQDSKDSTYSLSSTLTLSKADYEKHKVYACEVTHQGLSSPVTKSFNRGEC | – | – | – | 73.5 % of control | 53.6 % of control | 1.37
4 | GpH7-A5/GpH7-B3 variant D270_06M/GpL16-k0 (antibody, human IgG1, kappa, change in the GpH7-B3 H chain only; also called He Ab) heavy 1: not shown heavy 2: not shown light: DIVMTQSPLSLPVTPGEPASISCQASESLVHSNRNTYLHWYLQKPGQSPQLLIYKVSNRFSGVPDRFSGSGSGTDFTLKISRVEAEDVGVYYCSQNTHVPPTFGQGTKVEIERTVAAPSVFIFPPSDEQLKSGTASVVCLLNNFYPREAKVQWKVDNALQSGNSQESVTEQDSKDSTYSLSSTLTLSKADYEKHKVYACEVTHQGLSSPVTKSFNRGEC | – | – | – | 78.8 % of control | 48.2 % of control | 1.64
5 | GpH7-A5/GpH7-B3 variant D270_11K/GpL16-k0 (antibody, human IgG1, kappa, change in the GpH7-B3 H chain only; also called He Ab) heavy 1: not shown heavy 2: not shown light: DIVMTQSPLSLPVTPGEPASISCQASESLVHSNRNTYLHWYLQKPGQSPQLLIYKVSNRFSGVPDRFSGSGSGTDFTLKISRVEAEDVGVYYCSQNTHVPPTFGQGTKVEIERTVAAPSVFIFPPSDEQLKSGTASVVCLLNNFYPREAKVQWKVDNALQSGNSQESVTEQDSKDSTYSLSSTLTLSKADYEKHKVYACEVTHQGLSSPVTKSFNRGEC | – | – | – | 58.4 % of control | 20.3 % of control | 2.88

Next, values leading:

Row | He_1a/2b (Ia/IIb) [1] [ratio] | He/Con_1a [2] | He/Con_2b [3] | He/Con_1a [4] | He/Con_2b [5] | He_1a/2b (Ia/IIb) [6] [ratio] | Binder
6 | – | – | – | 71.5 % of control | 48.3 % of control | 1.48 | GpH7-A5/GpH7-B3 variant D270_02A/GpL16-k0 (antibody, human IgG1, kappa, change in the GpH7-B3 H chain only; also called He Ab) heavy 1: not shown heavy 2: not shown light: DIVMTQSPLSLPVTPGEPASISCQASESLVHSNRNTYLHWYLQKPGQSPQLLIYKVSNRFSGVPDRFSGSGSGTDFTLKISRVEAEDVGVYYCSQNTHVPPTFGQGTKVEIERTVAAPSVFIFPPSDEQLKSGTASVVCLLNNFYPREAKVQWKVDNALQSGNSQESVTEQDSKDSTYSLSSTLTLSKADYEKHKVYACEVTHQGLSSPVTKSFNRGEC
7 | 5.37 | 81.9 % of HeCon Ab (GpH7-A5/GpH7-B3/GpL16-k0 = 100) | 15.2 % of HeCon Ab (GpH7-A5/GpH7-B3/GpL16-k0 = 100) | – | – | – | GpH7-A5/GpH7-B3 variant V266_10E/GpL16-k0 (antibody, human IgG1, kappa, He Ab; IgG1, mutation in one H chain) heavy 1: not shown heavy 2: not shown light: DIVMTQSPLSLPVTPGEPASISCQASESLVHSNRNTYLHWYLQKPGQSPQLLIYKVSNRFSGVPDRFSGSGSGTDFTLKISRVEAEDVGVYYCSQNTHVPPTFGQGTKVEIERTVAAPSVFIFPPSDEQLKSGTASVVCLLNNFYPREAKVQWKVDNALQSGNSQESVTEQDSKDSTYSLSSTLTLSKADYEKHKVYACEVTHQGLSSPVTKSFNRGEC
8 | – | – | – | 75.3 % of control | 44.2 % of control | 1.7 | GpH7-A5/GpH7-B3 variant D270_13S/GpL16-k0 (antibody, human IgG1, kappa, change in the GpH7-B3 H chain only; also called He Ab) heavy 1: not shown heavy 2: not shown light: DIVMTQSPLSLPVTPGEPASISCQASESLVHSNRNTYLHWYLQKPGQSPQLLIYKVSNRFSGVPDRFSGSGSGTDFTLKISRVEAEDVGVYYCSQNTHVPPTFGQGTKVEIERTVAAPSVFIFPPSDEQLKSGTASVVCLLNNFYPREAKVQWKVDNALQSGNSQESVTEQDSKDSTYSLSSTLTLSKADYEKHKVYACEVTHQGLSSPVTKSFNRGEC
